From patent US20200140526A1 (UNIVERSITY OF ROCHESTER, published 2020)

Key:
[1] = target: T1, B/Brisbane/60/2008 (IBV) HA (influenza B virus B/Brisbane/60/2008 …, UniProt P22092 16-559); assay: cell-based or functional assay
[2] = target: A/Wyoming/3/2003 H3N2 HA (influenza A virus A/Wyoming/3/2003 H3N2); assay: cell-based or functional assay
[3] = target: A/Puerto Rico/08/1934 H1N1 (PR8 H1N1) HA (influenza A virus A/Puerto Rico/08/1934 …, UniProt P03452 18-528); assay: cell-based or functional assay
[4] = target: T1, B/Brisbane/60/2008 (IBV) HA; assay: mPLEX-Flu multiplex bead assay, PE anti-human IgG, MFI heat map
[5] = target: A/South Carolina/01/1918 H1N1 HA (influenza A virus A/South …, UniProt Q9WFX3 18-529); assay: as above
[6] = target: T2, B/Massachusetts/2/2012; assay: as above
T2 construct: column under B

[7] = target: A/Texas/50/2012; assay: as above

B1: KPF1 human monoclonal antibody (hmAb) (antibody, V domains shown)
VH: EVQLLESGGGLVQPGGSLRISCAASGSTFGDFAMSWVRQSPGRGLEWVSVTSAGGDRTYYADSVKGRFTISRDNSKNTLYLQMNSLRGEDTAMYYCARLDSSGFHYGRPGRNWGQGTLVTVSS
VL: DIQMTHSPPSLSASVGDRITITCQASQDISYYLIWYQQKPGKAPKPLIYDASNLEAGVPSRFSASGSGTDFTLTISSLQPEDLATYYCQQYKSLPYTFGQGTKLEIK
[1]
  NT50 (µg/ml), microneutralization, crystal violet: > 200 µg/mL
[2]
  NT50 (µg/ml), microneutralization, crystal violet: > 200 µg/mL
[3]
  NT50 (µg/ml), microneutralization, crystal violet: 146 µg/mL
[4]
  binding result: no binding (tested: 1 ug/ml)
[5]
  binding result: binds
[6]
  binding result: no binding (tested: 1 ug/ml)
[7]
  binding result: no binding (tested: 1 ug/ml)
